assay: soluble on expression in E. coli; label from the status in PepcDB or PDB records

| Sequence | soluble on expression in E. coli |
| --- | --- |
| MGSDKIHHHHHHMKSNGHATRLRTTPSLGGQSHDTRARMIEAAIEVFGSVGYDGATTRQLAERAGVNQAAIPYHFGGKRELYVAAAQAIADYMRSRIEPLIDELRTASVDPVGHIDAVVMRFFQFIAGDEEPEAWTVFFVRCERDADDAFRIIYYQSVARFQAALIAEVAAATGRSPDDEDLKVRVAVVLGAISNFRTLRNVMLSSLGWDTFDAERKLTVETAVRRLALAELLGIHADAPSDVHPPLGSASGAQPSPTARP | not soluble |
| IGYWHYDADTDTATWSKGLFKILGLPPSNVALNYSSFLDLVHPNDKAGLKNVVEKALKEKEDYDYELRVRNGDNDYKWYRTIARANPHK | not soluble |
| MTSSQLVKMRLELRRGVLVLAVLGLLKQPHYGYSLRKQLQDGGIDIDEGTLYPLVRRLAEQGLLDSEWRQAEGRERRYYQLSSSGAELLSQLTEEWQQLNGALAFLLGQVTDENAEEN | not soluble |
| MRFFYDTEFIEDGETIDLVSIGIVCEDGREYYAVSTDADHSRANKWVRDNVLDKMPNPSSTLWKSNATIRQEVYEFLTSTPGNTELWAWVGAYDHVVLAQLWGDMRGLPKELPRYTHELKQYWEMAGRPRLPKLPEGNHDALVDARHNLQKFKICAESLPLNKRNVVNR | not soluble |
| MKPRESMVRLKMFQVRGKRREIAQLEMMIAEFERMVLELEAQIVHEECKSGNSDVHHFAYSALARAARQRRDNLINSIRDLQLQKTNAEIALHEVTTELQRAQLLEARENGGVAGEKDIFMQSRSMTG | not soluble |
| MEESLKVGIAGLGTVGSSVVRILREKANSLTCQCGRSIKVVAVSARDKSRNRGIDLSDVKWFDSPVEMASSDEIDVFVELIGGESDVVYAAVKKALETGHHVVTANKALLAQHGGRLAVSAEKKGVFLHFEAAVAGGIPIIKVMRESLVSNHISRIYGILNGTCNYILTRMFTEGLSFKECLEDAQRLGYAEVDPTFDIGGNDTAHKLALLTSLAFGTAVSLDDIYVEGISNISQIDIRAADELGYRIKLLGVALKTETGIEQRVHPTMVPTSSMIAQIHGVTNALSIQSDLLGELLLSGPGAGGTATASAVIGDLADIAKARPGFQYAPVLGRPALGLAPHKKARISHHAGGYFIRLNVHDRAGVFAAVAKHMAGNHISLESIVQRSFVESQSVKTIILITHETTEVNVQQALAAIEKDGHLVAKSQFIRIEPMVLEHHHHHH | not soluble |
| SSSSSSPAIEPDTPDLICQLDNVQGMVDALTCVRWKRHQDALVELSEHGIVLIVEESGCLQAKVYLQRELFTKYEYGAQGRPRFGISLGLLVDCLNTFSSPGHSNTIEIKYPGPDMELLLKSVDTLNSCIYSEIRTRIPETVTWDYNFEQAGIAPLTFTVKSAALKEAIDDLEWPGSSVQISLQKEPPCVIFRGEGHGDLQIDFMYYANTDLLLAFHCDTEVSYGYKYKFLKATTANIPGNVVRENRRSKLTIGRGGMLKVQHLVSVSKALAPQVESAGYQPPSRIAYIEFFVKPEEPAD | soluble |
| MGSDKIHHHHHHMSDTLLEIDNLTVDFQLPTGTVSAVKHVSFSLQPGETLALVGESGSGKSVSSTAAMRLLPELARTSGAIRFKGEDLLRATPRRMRHIRGNAISMIFQEPMTSLNPLHRIGRQIAEVLEKHRGLKGRQARTKIVELLEQVGIPDPARRIDSYPHELSGGQRQRVMIAMALACEPELLIADEPTTALDVTVQAQILALLKDLQARYGMAILFITHDLGIVRHFADRVCVMRRGELIESGPTAELFDTPRDDYTRMLIDADPRGRKTPVDPSMPVLFEAKDLQVRFTLKKRLFRASEHFEAVRGIDLTIRRGQTVGIVGESGSGKSTLGRALLRLLDSRGEIRFDGQDIAALDTAGMRPLRSRLQVVFQDPFGSLSPRMTVGEVISEGLRVHHPTLDRRQREARVIEALEDVALDPAMRNRYPHEFSGGQRQRIAIARALVLKPEFLLLDEPTSALDRSVQVTVIDLLRDLQQKHGLTYLFISHDLSVVRALADTVLVMKAGQVVEQGATEEIFANPREHYTRELMRAAFVDAA | not soluble |
| MGSDKIHHHHHHMSGGSSMTDQGWAMKGELVLSCNCTVFCPCVLSLGNHAPTEGYCQTWAGFRIDAGHFGEVDLSGLNLGLIMEIPGYMSRGNWTAGLFIDKRASIYAVKALTKIFTGKAGGTTSLLSILVGKFLPITYETRDKMRIFQIPKIIDGAVTPIAGKDREKDTVITNSEYWIAPEIIVARSDKSKMRAFGRNWNFAGRSAEICKLDWRGP | not soluble |
| MAELDEAALLGDGNEQHDGPIDENALLDGKELKEEDIDDLYDEAIAPTNSTESAKPVSPTITTVTAPTAGIGAKPATSSEGRKYCCYVGNLLWYTTDADLLKALQSTGLARSQFADMKFFENRTNGQSKGYALLVLNSDAAVKQTMEILPTKTIHGQSPTVLSYNKTNQAKLEDAQAKNQTRPDVKKKGFEEGCVNMGTIRIGAGGQTGRTGTSVSGRSGPPPLMMQQVRPTPLMSQPTSLPSNLNQAPQMRLQINGQQVPLMNRAPVPQQTMLGNGPLGGMNQQIQQQPQMMMGQQVRPMMQTSMGIQPMMGMNAPPPMNNQFQNRPPQLGSMGVQPLMQMNTAMRPPINGLPPVHVNPQMFPGLQGTVLSDAEFEDVMTRNQTVSSSAIARAITDASVGDIKGASETILTAIQLIKNSRIGHDERCRQLVYGLEHTLKGLESKGYSSRSKSHRDRSRSRERDRKRRRRSRTRSRSYSRSPSPRRRRY | soluble |
| MSLRKGSMRITPLGGLGEIGRNMNVIEYNGHLLLIDCGVLFPEEEQPGVDLILPDFSYIKNRLDKVDALVLTHGHEDHIGGVPYLLKLRPDIPLIGSKLTLAFVDAKCKEHHQNPTKVEVAGREKLKVGPFDLEFVNVTHSIPDALAVYVKTPAGSLIDTGDIKLDQLPLDHRITDLVEFGKIGEKGVDLLMMDSTNAEVPGFVKPETSIGPALDQAFAQATRKIIVASFSSHVHRVQQVVDAAHKYGRKVVFVGRSMVRNMSIAADLGYLHIPEGTVVDLKQANDIQDDKLVFMCTGSQGEPMAALGRIADGNHRDIHINEFDTVILASSLIPGNEHGVYKVINKLVQLGAKVVNRDNAAVHVSGHCNEGELLYMYNIVKPKCAMPIHGENRHLVANGLIAVKTGVDPQNVVLAEDGDVVDLYHGRAAVVGSVPCGYVYVDGDSVGELTDDELEKRRILGTEGFVSAFVVVDTDNHEVVTGPKIYLNAVAEDESEFDKVRHQIVEQLNDQMMQGTRDTYKLQQTMRRTLGSWVARQLHRKPMIVPVVADIAQDVETVETKEGHHHHHH | soluble |
| MKKMLLATALALLITGCAQQTFTVQNKQTAVAPKETITHHFFVSGIGQKKTVDAAKICGGAENVVKTETQQTFVNGLLGFITLGIYTPLEARVYCSK | soluble |
| MKLFQVLIISMICLALVEERRDRSNRRRNQSEGGSRSRSESWLGSSGSSRSRSSGRSAASAGSSQAASPAGASAIGSSQAGSSAGSPAAAAAGGSGGADAGAILNGVGGLMRSVGGLAGAAGGAAGGAAGAPAGAPAGASAGASAAPAAQDAGTVLGGVSGVLTGVSGIVSAAGAAKA | not soluble |
| FPQLPPAPDDYPTFPDTSTWPVVFPELPAAPYGGPCRPPQHTSKAAAPRIPADRLPNHVAIVMDGNGRWATQRGLARTEGHKMGEAVVIDIACGAIELGIKWLSLYAFSTENWKRSPEEVRFLMGFNRDVVRRRRDTLKKLGVRIRWVGSRPRLWRSVINELAVAEEMTKSNDVITINYCVNYGGRTEITEATREIAREVAAGRLNPERITESTIARHLQRPDIPDVDLFLRTSGEQRSSNFMLWQAAYAEYIFQDKLWPDYDRRDLWAACEEYASRTRRFGSA | soluble |
| MATAADSVYSIESPKAAKSLMLDVVHAGKRLVAVGDRGHILYSDDQGQTWVQAKVPTRQLLTAVYFVDDKRGWAVGHDAQVLASSDGGATWTRQFQDLKREAPLLDVWFKDTQTGYAVGAYGALLETSDGGQHWEDVSDRLDNEDQFHLNAIAQVKDSGLFIVGEQGSMFRSADDGQTWERLEGPYEGSLFGVIGTGQPATLLVYGLRGNLYRSTDFGSTWEQVELEHHHHHH | soluble |
| MNQLCRAVPSLRSAVRLASSGRLYTKKHEWVLVENGVGTVGITDFATEQLGDVVFIELPDEGTEISKGDSTGAVESVKAASDIYAPISGTVTQKNVKLEEEAGLINKSPFEKGWLYKLKVKSADELEKLLNEEQYAKFKKDEEAAH | not soluble |
| MAYRICLIEGDGIGHEVIPAARRVLEATGLPLEFVEAEAGWETFERRGTSVPEETVEKILSCHATLFGAATSPTRKVPGFFGAIRYLRRRLDLYANVRPAKSRPVPGSRPGVDLVIVRENTEGLYVEQERRYLDVAIADAVISKKASERIGRAALRIAEGRPRKTLHIAHKANVLPLTQGLFLDTVKEVAKDFPLVNVQDIIVDNCAMQLVMRPERFDVIVTTNLLGDILSDLAAGLVGGLGLAPSGNIGDTTAVFEPVHGSAPDIAGKGIANPTAAILSAAMMLDYLGEKEAAKRVEKAVDLVLERGPRTPDLGGDATTEAFTEAVVEALKSL | soluble |
| MGSDKIHHHHHHMAWIKTVAFGDATGKLRKLYDRVTGPGGNVDNIMMAHSLRPHTMEGHMALYKNVLHHSGNELPKWVLEMIGVWVSSLNGCAYCVEHHFAGLKRLMRDDARAEAIRAAIEARDIKALPVRACEMAAMDYARKLTQAPTEMMAADLEPLRAEGLSDGHILEINQVVAYFAYANRTVLGLGCSTEGDVLGLSPGNSDDPTDWGHA | not soluble |
| MSLTTVLGIETSCDETGVGIARLDPDGTVTLLADEVASSVDEHVRFGGVVPEIASRAHLEALGPAMRRALAAAGLKQPDIVAATIGPGLAGALLVGVAAAKAYSAAWGVPFYAVNHLGGHLAADVYEHGPLPECVALLVSGGHTHLLHVRSLGEPIIELGSTVDDAAGEAYDKVARLLGLGYPGGKALDDLARTGDRDAIVFPRGMSGPADDRYAFSFSGLKTAVARYVESHAADPGFRTADIAAGFQEAVADVLTMKAVRAATALGVSTLLIAGGVAANSRLRELATQRCGEAGRTLRIPSPRLCTDNGAMIAAFAAQLVAAGAPPSPLDVPSDPGLPVMQGQVEGHHHHHH | soluble |
| MLPEIWKHDSPYFRPEGDTRGEAVLPIGMPMRQQYDFSSSRKNPYAAKLKKPVTIRLDEESISYFKSMSEETGIPYQSLINLYLKECAASGKRLNLSWK | not soluble |
| MAKQTIIVMSDSHGDSLIVEEVRDRYVGKVDAVFHNGDSELRPDSPLWEGIRVVKGNMDFYAGYPERLVTELGSTKIIQTHGHLFDINFNFQKLDYWAQEEEAAICLYGHLHVPSAWLEGKILFLNPGSISQPRGTIRECLYARVEIDDSYFKVDFLTRDHEVYPGLSKEFSR | soluble |
| MGVKRKKMGKVAGFTEWTAEDLEAFRARWPIGTAQRLALELYQWTGARCVDVIRLGPQMVGRDGVLTYVQQKTGNPAHVPWTCPAFGLEEQRADLMRCLPVGSPVYMLTEYGKPRTQKGVSQWFSAAAREAGLESRTAHGLRKYRMNALAEHGASVLVMQSWVGHTTLLEVQEYTRRADRRRVISGGHPVKRDPAGAAAALEHHHHHH | soluble |
| MIATTSQQSFNLLRTLAVQKASDFADEFYIYMLKDQEASLFLSSQQVHDRLHGSMSKWIADILTNTGDSLADLINHQKKIGQIHARIGIPVDLVERGARRLKWHLYEHIAQVADDKALCFDAMRFASISMDIAIEIMSKTYSQSHDLEHHHHHH | not soluble |

Reference: the DeepSol protein solubility set
